# Assay results as given in patent US20220119825A1, “SCALABLE PEPTIDE-GPCR INT[…] SYSTEMS” (THE TRUSTEES OF COLUMBIA UNIVERSITY IN THE CITY OF NEW YORK, priority 2019, published 2022).
# T1: Nc.Ste2, Ste2-like mating GPCR of Neurospora crassa (Neurospora crassa)
# T1 chain: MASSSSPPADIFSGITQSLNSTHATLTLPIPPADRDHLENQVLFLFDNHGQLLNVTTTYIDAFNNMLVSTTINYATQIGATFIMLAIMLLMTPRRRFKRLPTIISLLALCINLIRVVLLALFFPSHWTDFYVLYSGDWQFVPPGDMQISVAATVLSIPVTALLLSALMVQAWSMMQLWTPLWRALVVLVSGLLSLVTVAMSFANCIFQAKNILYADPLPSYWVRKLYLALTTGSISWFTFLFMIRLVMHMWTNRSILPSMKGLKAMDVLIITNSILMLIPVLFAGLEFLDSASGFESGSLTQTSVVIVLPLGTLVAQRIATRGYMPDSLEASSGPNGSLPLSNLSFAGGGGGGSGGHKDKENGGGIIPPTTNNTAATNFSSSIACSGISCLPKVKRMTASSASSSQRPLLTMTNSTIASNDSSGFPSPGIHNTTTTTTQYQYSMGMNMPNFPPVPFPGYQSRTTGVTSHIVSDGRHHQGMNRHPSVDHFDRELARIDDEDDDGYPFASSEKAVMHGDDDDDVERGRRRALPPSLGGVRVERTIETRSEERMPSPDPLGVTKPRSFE
# T2: Le.Ste2, Ste2-like mating GPCR of Lodderomyces elongisporous (Lodderomyces elongisporous)
# T2 chain: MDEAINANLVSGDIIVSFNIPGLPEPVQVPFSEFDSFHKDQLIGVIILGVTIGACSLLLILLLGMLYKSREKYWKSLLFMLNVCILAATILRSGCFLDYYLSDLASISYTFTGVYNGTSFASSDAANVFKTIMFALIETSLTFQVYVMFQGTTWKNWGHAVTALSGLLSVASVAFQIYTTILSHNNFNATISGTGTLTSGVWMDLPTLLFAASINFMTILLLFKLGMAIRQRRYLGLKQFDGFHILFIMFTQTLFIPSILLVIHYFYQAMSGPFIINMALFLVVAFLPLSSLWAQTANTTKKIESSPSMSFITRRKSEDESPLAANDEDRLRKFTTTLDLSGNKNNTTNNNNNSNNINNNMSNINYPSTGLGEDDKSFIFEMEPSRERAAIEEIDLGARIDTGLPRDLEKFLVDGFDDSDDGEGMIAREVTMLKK
# T3: Hj.Ste2, Ste2-like mating GPCR of Hypocrea jecorina (Hypocrea jecorina)
# T3 chain: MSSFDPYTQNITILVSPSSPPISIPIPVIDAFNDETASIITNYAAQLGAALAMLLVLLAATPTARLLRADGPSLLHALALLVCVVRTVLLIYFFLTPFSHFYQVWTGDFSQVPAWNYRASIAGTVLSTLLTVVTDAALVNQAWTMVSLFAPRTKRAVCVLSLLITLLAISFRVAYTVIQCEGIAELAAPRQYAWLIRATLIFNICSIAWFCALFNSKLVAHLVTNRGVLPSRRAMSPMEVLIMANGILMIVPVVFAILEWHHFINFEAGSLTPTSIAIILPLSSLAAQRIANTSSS
# T4: Bb.Ste2, Ste2-like mating GPCR of Beauvaria bassiana (Beauvaria bassiana)
# T4 chain: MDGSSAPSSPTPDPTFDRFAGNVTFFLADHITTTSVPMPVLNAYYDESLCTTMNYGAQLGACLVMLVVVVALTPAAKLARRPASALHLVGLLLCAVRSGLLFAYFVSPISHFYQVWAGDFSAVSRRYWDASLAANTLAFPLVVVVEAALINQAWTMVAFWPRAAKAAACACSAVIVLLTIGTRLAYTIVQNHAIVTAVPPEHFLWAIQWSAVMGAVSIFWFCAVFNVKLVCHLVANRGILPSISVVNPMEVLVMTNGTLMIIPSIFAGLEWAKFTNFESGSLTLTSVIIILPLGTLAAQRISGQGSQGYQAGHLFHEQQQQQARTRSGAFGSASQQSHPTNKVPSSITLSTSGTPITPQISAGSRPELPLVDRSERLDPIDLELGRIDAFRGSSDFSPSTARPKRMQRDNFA
# T5: Pd.Ste2, Ste2-like mating GPCR of Pseudogymnoascus destructans (Pseudogymnoascus destructans)
# T5 chain: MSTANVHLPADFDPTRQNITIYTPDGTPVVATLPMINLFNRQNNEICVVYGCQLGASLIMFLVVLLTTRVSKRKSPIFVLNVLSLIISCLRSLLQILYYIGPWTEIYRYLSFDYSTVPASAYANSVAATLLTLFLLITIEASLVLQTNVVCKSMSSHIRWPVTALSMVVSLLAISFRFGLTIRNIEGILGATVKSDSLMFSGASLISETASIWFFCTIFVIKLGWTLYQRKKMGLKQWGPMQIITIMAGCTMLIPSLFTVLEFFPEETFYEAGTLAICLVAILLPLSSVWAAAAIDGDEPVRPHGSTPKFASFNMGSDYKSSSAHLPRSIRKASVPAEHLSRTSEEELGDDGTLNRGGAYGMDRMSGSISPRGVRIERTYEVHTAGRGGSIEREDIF
# T6: Bc.Ste2, Ste2-like mating GPCR of Botrytis cinerea (Botrytis cinerea)
# T6 chain: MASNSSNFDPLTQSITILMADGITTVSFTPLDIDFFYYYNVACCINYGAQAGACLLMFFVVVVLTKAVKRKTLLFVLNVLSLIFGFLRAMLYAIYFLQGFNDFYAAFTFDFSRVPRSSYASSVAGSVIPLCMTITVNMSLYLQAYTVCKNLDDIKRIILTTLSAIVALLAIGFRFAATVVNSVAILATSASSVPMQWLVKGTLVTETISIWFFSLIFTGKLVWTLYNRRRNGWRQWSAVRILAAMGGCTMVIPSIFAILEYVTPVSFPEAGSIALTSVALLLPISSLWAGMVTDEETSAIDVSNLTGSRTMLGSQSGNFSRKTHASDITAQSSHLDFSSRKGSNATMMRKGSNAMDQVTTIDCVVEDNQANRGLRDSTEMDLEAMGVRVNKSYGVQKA
# T7: Pr.Ste2, Ste2-like mating GPCR of Penicillium chrysogenum (Penicillium chrysogenum)
# T7 chain: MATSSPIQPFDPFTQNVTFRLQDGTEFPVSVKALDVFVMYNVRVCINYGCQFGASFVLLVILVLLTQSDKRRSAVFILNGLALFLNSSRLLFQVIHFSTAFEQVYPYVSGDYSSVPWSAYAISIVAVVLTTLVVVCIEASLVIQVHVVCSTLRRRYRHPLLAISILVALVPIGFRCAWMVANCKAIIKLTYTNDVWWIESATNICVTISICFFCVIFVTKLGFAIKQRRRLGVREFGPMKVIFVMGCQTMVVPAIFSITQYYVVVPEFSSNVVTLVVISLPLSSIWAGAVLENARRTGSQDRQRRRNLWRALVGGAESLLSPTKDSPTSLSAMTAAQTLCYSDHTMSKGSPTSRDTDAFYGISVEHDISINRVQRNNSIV
# B1: She. Ste2: genome-mined mating GPCR activated by near-cognate peptide with two additional N-terminal residues (protein)
# chain: MKPAAGPASSPFDPFNQTFYLTGPDNTTVPVSVPQVDYIWHYIIGTSINYGSQIGACLLMLLVMLTLTSKSRFSRAATLINVASLLIGVIRCVLLAVYFTSSLTELYALFVGDYSQVRRSDLCVSAVATFFSLPQLVLIEAALFLQAYSMIKMWPSLWRAVVLAMSVVVAVCAIGFKFASVVMRMRSTLTLDDSLDFWLVEVDLAFTATTIFWFCFIYIIRLVIHMWEYRSILPPMGSVSAMEVLVMTNGALMLVPVIFAAIEINGLSSFESGSLVHTSVIVLLPLGSLIAQAMTRPDGYVQRTNTSGASGASGAHPGRNGSGHGGHGGAYSRAMTNTLNTLDTLDTVDSKTSIMHHHHHHHRNHSNGMSKTKANSGTWSHASDANSTNAMISGGIATQVRIQANQSTLGNTGMSGGSGAPNSHTRNNSLAAMEPVEKQLHDIDATPLSASDCRVWVDREVEVRRDMV
# Legend:
# [1] = target: T1, Nc.Ste2, Ste2-like mating GPCR of …; assay: cell-based or functional assay
# [2] = target: T2, Le.Ste2, Ste2-like mating GPCR of …; assay: cell-based or functional assay
# [3] = target: T3, Hj.Ste2, Ste2-like mating GPCR of …; assay: cell-based or functional assay
# [4] = target: T4, Bb.Ste2, Ste2-like mating GPCR of …; assay: cell-based or functional assay
# [5] = target: T5, Pd.Ste2, Ste2-like mating GPCR of …; assay: cell-based or functional assay
# [6] = test system: Ste2-like fungal mating GPCRs expressed in S. cerevisiae; assay: GPCR on-off activity and dose response assay (FUS1 promoter coRFP fluorescent reporter, strain JTy014, synthetic peptide ligand); type: cell-based, Ascomycete fungi (expressed in S. cerevisiae); settings: 40 μM synthetic peptide ligand; 8 hours
# Description: GPCR on-off activity and dose response assay. GPCR activity and response to increasing dosage of synthetic peptide ligand was measured in strain JTy014 using the genomically integrated FUS1-promoter controlled coRFP as a fluorescent reporter. JTy014 strains carrying the appropriate GPCR expression plasmid were assayed in 96-well microtiter plates using 200 μl total volume, cultured at 30° C. and 800 RPM. Cells were seeded at an A600 of 0.3 (Note: all herein reported cell density values are based on A600 measurements in 96-well plates of a 200 μl volume of cultures with a path length of ˜0.3 cm performed in an Infinite M200 plate reader from Tecan) in SC media lacking uracil (selective component). All measurements were performed in triplicates. RFP fluorescence (excitation: 588 nm, emission: 620 nm) and culture turbidity (A600) were measured after 8 hours using an Infinite M200 plate reader (Tecan). Since the optical density values were outside the linear range of the photodetector, all optical density values were first corrected using the following formula to give true optical density values: […]
# where Ameas is the measured optical density, Asat is the saturation value of the photodetector and k is the true optical density at which the detector reaches half saturation of the measured optical density^36. Dose-response was measured at different concentrations (11 five-fold dilutions in H2O starting at 40 μM peptide, H2O was used as “no peptide” control) of the appropriate synthetic peptide ligand. All fluorescence values were normalized by the A600, and plotted against the log(10)-converted peptide concentrations. Data were fit to a four-parameter non-linear regression model using Prism (GraphPad) in order to extract GPCR-specific values for basal activation, maximal activation, EC50 and the Hill coefficient. Fold-activation was calculated for each GPCR as the maximum A600-normalized fluorescence of peptide-treated cells divided by the A600 normalized fluorescence value of water-treated cells.
# [7] = target: T6, Bc.Ste2, Ste2-like mating GPCR of …; assay: cell-based or functional assay
# [8] = target: T7, Pr.Ste2, Ste2-like mating GPCR of …; assay: cell-based or functional assay
molecule,measurement,setting,value
QWCRIHGQSCW [Nc peptide ligand #1 QWCRIHGQSCW],Bttm (FUS1p-RFP reporter),[1],27.6 fluorescence/A600 (not printed)
same,EC50 (FUS1p-RFP reporter),[1],-6.3 log10 M (not printed)
same,Fold Change (FUS1p-RFP reporter),[1],10.4 fold
same,Span (FUS1p-RFP reporter),[1],259 fluorescence/A600 (not printed)
same,Top (FUS1p-RFP reporter),[1],287 fluorescence/A600 (not printed)
WMWTRYGRFSPV [Le peptide ligand #1 WMWTRYGRFSPV],Bttm (FUS1p-RFP reporter),[2],22.9 fluorescence/A600 (not printed)
same,EC50 (FUS1p-RFP reporter),[2],-7.7 log10 M (not printed)
same,Fold Change (FUS1p-RFP reporter),[2],18 fold
same,Span (FUS1p-RFP reporter),[2],390 fluorescence/A600 (not printed)
same,Top (FUS1p-RFP reporter),[2],412 fluorescence/A600 (not printed)
WCYRIGEPCW (modifications not checked) [Hj peptide ligand #1 (Table 3: …)],Bttm (FUS1p-RFP reporter) (fluorescence/A600 (not given)),[3],53
same,EC50 (FUS1p-RFP reporter) (log10 M (not given)),[3],-7.8
same,Fold Change (FUS1p-RFP reporter),[3],8.1 fold
same,Span (FUS1p-RFP reporter) (fluorescence/A600 (not given)),[3],376
same,Top (FUS1p-RFP reporter) (fluorescence/A600 (not given)),[3],430
WCMRPGQPCW [Bb peptide ligand #1 WCMRPGQPCW],Bttm (FUS1p-RFP reporter),[4],25.2 fluorescence/A600 (not printed)
same,EC50 (FUS1p-RFP reporter),[4],-8.5 log10 M (not printed)
same,Fold Change (FUS1p-RFP reporter),[4],9.7 fold
same,Span (FUS1p-RFP reporter),[4],219 fluorescence/A600 (not printed)
same,Top (FUS1p-RFP reporter),[4],244 fluorescence/A600 (not printed)
FCWRPGQPCG [Pd peptide ligand #1 FCWRPGQPCG],Bttm (FUS1p-RFP reporter),[5],28.8 fluorescence/A600 (not printed)
same,EC50 (FUS1p-RFP reporter),[5],-7.7 log10 M (not printed)
same,Fold Change (FUS1p-RFP reporter),[5],6.6 fold
same,Span (FUS1p-RFP reporter),[5],161 fluorescence/A600 (not printed)
same,Top (FUS1p-RFP reporter),[5],190 fluorescence/A600 (not printed)
B1,activation by alternative near-cognate peptide ligand candidates,[6],can be activated
WCGRPGQPC [Bc peptide ligand #1 WCGRPGQPC],Bttm (FUS1p-RFP reporter),[7],28.6 fluorescence/A600 (not printed)
same,EC50 (FUS1p-RFP reporter),[7],-8.1 log10 M (not printed)
same,Fold Change (FUS1p-RFP reporter),[7],12.3 fold
same,Span (FUS1p-RFP reporter),[7],323 fluorescence/A600 (not printed)
same,Top (FUS1p-RFP reporter),[7],352 fluorescence/A600 (not printed)
WCGHIGQGC [Pr peptide ligand #1 WCGHIGQGC],Bttm (FUS1p-RFP reporter),[8],27.9 fluorescence/A600 (not printed)
same,EC50 (FUS1p-RFP reporter),[8],-5.8 log10 M (not printed)
same,Fold Change (FUS1p-RFP reporter),[8],7.4 fold
same,Span (FUS1p-RFP reporter),[8],179 fluorescence/A600 (not printed)
same,Top (FUS1p-RFP reporter),[8],207 fluorescence/A600 (not printed)
